Laboratory results published in publication PMC8860611.

Target: HIV-1 CA A14C/E45C/W184A/M185A (pET11a-CA (A14C, E45C, W184A and M185A)), assembled into soluble cross-linked hexamers (HIV-1)
Assay: cross-linking

For “HIV-1 CA A14C/E45C/W184A/M185A (pET11a-CA (A14C, E45C, W184A and M185A)), assembled into soluble cross-linked hexamers (natural protein)”, the stoichiometry N was 6.
